Legend:
[1] = target: GII.4 Houston 2002 (ABY27560.1) VLPs (human norovirus GII.4 Houston 2002, UniProt P54635 1-539); test: ELISA, VLP
[2] = target: GII.4 Sydney 2012 virus-like particles (VLPs), based on strain AFV08795.1 (human norovirus GII.4 Sydney 2012, UniProt P54635 1-538, The particle is a multimeric assembly of VP1 with a little VP2 inside; one VP1 chain is given.); test: indirect ELISA, VLP coated

B1: NORO-329A (antibody, V domains shown)
VH: QVQLVESGGGLVKPGGSLRLSCAASGFTFSDYYMSWIRQAPGKGLEWISYISSSFGSTDYAGSMKGRFTISRDNAKNSLYLQMNSLRAEDTAVYYCARYNYYGSGSFVFDYWGQGTLVTVSS
VL: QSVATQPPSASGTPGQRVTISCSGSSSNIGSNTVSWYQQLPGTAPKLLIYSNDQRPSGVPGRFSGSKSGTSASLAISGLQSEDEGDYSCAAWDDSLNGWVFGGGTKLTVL
- fold higher binding EC50 than to GII.4 Sydney 2012 VLPs [1]: > 10 fold
- EC50 [2]: 0.2 µg/mL

B2: NORO-115 (antibody, V domains shown)
VH: QVQLVESGGGLVKPGGSLRLSCTASGITISGYYMSWIRQAPGKGLEWIVYINTSGRTIYYADSVKGRFSVSRDNAKESLYLQMDSLTVDDTGIYYCARDRLPASGSHWFHPWGQGTLVTVSS
VL: DIVMTQSPDSLAVSLGGRATINCKSSQSVLYTSDNKNYLAWYQQQPGQPPKLLISWASTRESGVPDRFSGSGSGTDFTLTISNLQAEDVAVYYCQQYYNSPLAFGGGTKVEIK
- fold higher binding EC50 than to GII.4 Sydney 2012 VLPs [1]: > 10 fold
- EC50 [2]: 0.1 µg/mL
